Measured values reported in patent US20260210939A1, “MODIFIED OLFACTORY RECEPTORS” (GIVAUDAN SA, priority 2022, published 2026).

Experiments:
OR7C1 = target: T1, OR7C1 (Homo sapiens, UniProt O76099, D296E/G302K/M297V/R299D/T295K/V126I); assay: CRE-luciferase assay, HEK293T cells expressing OR7C1 (wild-type / modified C-terminus); type: cell-based; details: OR7C1 variant, 1 μM Ambermax
T1 construct: Improved functional expression of modified OR-genes containing the truncated, optimized C-terminus; expressed in transfected cells; host or cells: HEK293T stably expressing human RTP1S(V227I) and RTP2(L220R)
T1 sequence (O76099 with tags, fused parts or gaps V126I/T295K/D296E/M297V/R299D/G302K): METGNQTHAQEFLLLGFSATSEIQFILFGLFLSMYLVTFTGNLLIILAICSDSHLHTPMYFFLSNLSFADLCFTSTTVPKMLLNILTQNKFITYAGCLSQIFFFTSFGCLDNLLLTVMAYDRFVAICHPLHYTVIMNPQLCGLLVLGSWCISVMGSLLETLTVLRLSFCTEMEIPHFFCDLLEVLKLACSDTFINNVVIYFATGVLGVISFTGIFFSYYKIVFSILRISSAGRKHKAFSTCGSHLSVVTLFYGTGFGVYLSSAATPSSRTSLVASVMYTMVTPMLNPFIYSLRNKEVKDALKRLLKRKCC
Text: To test for possible variants of the sequence […]CC (SEQ ID NO: 86) leading to similar improved functional expression, different point mutations were introduced into the first 16 amino acids of this sequence (corresponding to […], SEQ ID NO: 10) and the variants were fused after the TM7 with OR7C1. […] The test concentrations were selected to fall into the range of partial activity of the wild-type sequence.

OR7D4 = target: T2, OR7D4 (Homo sapiens, UniProt Q8NG98, D296E/E302K/G299D); assay: CRE-luciferase assay, HEK cells expressing OR7D4 (wild-type / modified C-terminus); type: cell-based; details: OR7D4 variant; for EC2 (concentration for 2-fold luciferase induction) / EC2 Fold-improvement vs. wild-type: Androstenone
T2 construct: Improved functional expression of modified OR-genes containing the truncated, optimized C-terminus; expressed in transfected cells
T2 sequence (Q8NG98 with tags, fused parts or gaps D296E/G299D/E302K): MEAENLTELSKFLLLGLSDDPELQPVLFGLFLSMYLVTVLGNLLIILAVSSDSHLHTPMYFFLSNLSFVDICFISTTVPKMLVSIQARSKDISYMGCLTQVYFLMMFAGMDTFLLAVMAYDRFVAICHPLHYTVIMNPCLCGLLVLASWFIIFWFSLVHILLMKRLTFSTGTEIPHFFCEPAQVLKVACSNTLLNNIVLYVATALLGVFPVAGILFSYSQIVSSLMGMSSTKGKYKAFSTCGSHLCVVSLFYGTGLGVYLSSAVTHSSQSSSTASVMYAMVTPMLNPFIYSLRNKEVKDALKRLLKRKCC
Text: Random permutations of the general C-terminal sequence RN[KR][EDQ][VMIL][KR]KA[LIV][KRH][KR][LI][LIF][KRG][KR][KR]CC (SEQ ID NO: 822) linked to OR7D4 were generated based on degenerate oligonucleotides for the C-terminal domain. For this experiment, the MfeI/XhoI fragment from pcDNA3.1(+)-mmLucy-FLAG-rho-OR7D4 containing the CMV promoter and the OR coding sequence was used to replace the EcoRI/SalI fragment of pRDVCCB-CMV-dCas9-VPH-2A-Blast (Cellecta, Inc., Mountain View, USA). Complementary degenerate oligonucleotides were then used to replace the coding region of the C-terminal domain of […] (between Bsu36I and NotI). Random clones were selected, sequenced and tested for a correct open reading frame. A total of 55 clones were obtained with the correct open reading frame of […] and a permutation of the general sequence RN[KR][EDQ][VMIL][KR]KA[LIV][KRH][KR][LI][LIF][KRG][KR][KR]CC (SEQ ID NO: 822) as the C-terminal domain. All the different clones were compared to the wild-type sequence by the functional assay in HEK cells with the ligand Androstenone tested in a dose-response test.

Substance: Ala Ala
- % of the activation by the optimized sequence RNKEVKDALKRLLKRKCC (OR7C1): 2.1%

Substance: Ala Glu
- % of the activation by the optimized sequence RNKEVKDALKRLLKRKCC (OR7C1): 2.1%

Substance: Arg Arg
- % of the activation by the optimized sequence RNKEVKDALKRLLKRKCC (OR7C1): 167.7%

Substance: Arg Gly
- % of the activation by the optimized sequence RNKEVKDALKRLLKRKCC (OR7C1): 139.9%

Substance: Arg Lys
- % of the activation by the optimized sequence RNKEVKDALKRLLKRKCC (OR7C1): 2.0%

Substance: Arg Phe
- % of the activation by the optimized sequence RNKEVKDALKRLLKRKCC (OR7C1): 130.8%

Substance: Arg Pro
- % of the activation by the optimized sequence RNKEVKDALKRLLKRKCC (OR7C1): 83.9%

Substance: Arg Tyr
- % of the activation by the optimized sequence RNKEVKDALKRLLKRKCC (OR7C1): 72.0%

Substance: Cys Gly
- % of the activation by the optimized sequence RNKEVKDALKRLLKRKCC (OR7C1): 142.3%

Substance: Cys Phe
- % of the activation by the optimized sequence RNKEVKDALKRLLKRKCC (OR7C1): 100.5%

Substance: Gln Glu
- % of the activation by the optimized sequence RNKEVKDALKRLLKRKCC (OR7C1): 0.0%

Substance: Glu Arg
- % of the activation by the optimized sequence RNKEVKDALKRLLKRKCC (OR7C1): 85.0%

Substance: Glu Lys
- % of the activation by the optimized sequence RNKEVKDALKRLLKRKCC (OR7C1): 153.0%

Substance: Gly Cys
- % of the activation by the optimized sequence RNKEVKDALKRLLKRKCC (OR7C1): 126.8%

Substance: Gly Gly
- % of the activation by the optimized sequence RNKEVKDALKRLLKRKCC (OR7C1): 128.9%

Substance: Gly Leu
- % of the activation by the optimized sequence RNKEVKDALKRLLKRKCC (OR7C1): 91.4%

Substance: His Asp
- % of the activation by the optimized sequence RNKEVKDALKRLLKRKCC (OR7C1): 1.6%

Substance: His Pro
- % of the activation by the optimized sequence RNKEVKDALKRLLKRKCC (OR7C1): 114.6%

Substance: Ile Ala
- % of the activation by the optimized sequence RNKEVKDALKRLLKRKCC (OR7C1): 0.0%

Substance: Lys Ala
- % of the activation by the optimized sequence RNKEVKDALKRLLKRKCC (OR7C1): 3.5%

Substance: Phe Arg
- % of the activation by the optimized sequence RNKEVKDALKRLLKRKCC (OR7C1): 181.7%

Substance: Phe Phe
- % of the activation by the optimized sequence RNKEVKDALKRLLKRKCC (OR7C1): 103.8%

Substance: Pro Ala
- % of the activation by the optimized sequence RNKEVKDALKRLLKRKCC (OR7C1): 75.6%

Substance: Pro Arg
- % of the activation by the optimized sequence RNKEVKDALKRLLKRKCC (OR7C1): 142.3%

Substance: Pro Gln
- % of the activation by the optimized sequence RNKEVKDALKRLLKRKCC (OR7C1): 211.8%

Substance: Pro Gly
- % of the activation by the optimized sequence RNKEVKDALKRLLKRKCC (OR7C1): 111.9%

Substance: Pro Pro
- % of the activation by the optimized sequence RNKEVKDALKRLLKRKCC (OR7C1): 36.2%

Substance: SEQ ID NO: 87 (RNREVKDALKRLLKRKCC; source 1..18: note = C-terminal domain sequence)
- % of the activation by the optimized sequence RNKEVKDALKRLLKRKCC (OR7C1): 119.1%

Substance: SEQ ID NO: 286 (RNRDVKKALRKLIGKRCC; source 1..18: note = C-terminal domain sequence)
- EC2 (concentration for 2-fold luciferase induction) (OR7D4): 0.003 µM
- EC2 Fold-improvement vs. wild-type (OR7D4): 545.04

Substance: SEQ ID NO: 287 (RNREVKKAVKKLIRRKCC; source 1..18: note = C-terminal domain sequence)
- EC2 (concentration for 2-fold luciferase induction) (OR7D4): 0.012 µM
- EC2 Fold-improvement vs. wild-type (OR7D4): 144.06

Substance: SEQ ID NO: 288 (RNKEVRKALKKLFGKKCC; source 1..18: note = C-terminal domain sequence)
- Fold induction luciferase (OR7D4; 0.1 μM Androstenone): 17.84
- Fold induction luciferase (OR7D4; 1 μM Androstenone): 28.81
- EC2 (concentration for 2-fold luciferase induction) (OR7D4): 0.006 µM
- EC2 Fold-improvement vs. wild-type (OR7D4): 294.52

Substance: SEQ ID NO: 289 (RNKEIRKALRRLFGKKCC; source 1..18: note = C-terminal domain sequence)
- EC2 (concentration for 2-fold luciferase induction) (OR7D4): 0.014 µM
- EC2 Fold-improvement vs. wild-type (OR7D4): 119.65

Substance: SEQ ID NO: 290 (RNKDVKKALRRLFGKKCC; source 1..18: note = C-terminal domain sequence)
- EC2 (concentration for 2-fold luciferase induction) (OR7D4): 0.008 µM
- EC2 Fold-improvement vs. wild-type (OR7D4): 225.85

Substance: SEQ ID NO: 291 (RNKELKKAIKRLIRRKCC; source 1..18: note = C-terminal domain sequence)
- EC2 (concentration for 2-fold luciferase induction) (OR7D4): 0.113 µM
- EC2 Fold-improvement vs. wild-type (OR7D4): 15.28

Substance: SEQ ID NO: 292 (RNKDVRKAVKRLLKKRCC; source 1..18: note = C-terminal domain sequence)
- EC2 (concentration for 2-fold luciferase induction) (OR7D4): 0.018 µM
- EC2 Fold-improvement vs. wild-type (OR7D4): 94.88

Substance: SEQ ID NO: 293 (RNKELRKAIRRLLRRRCC; source 1..18: note = C-terminal domain sequence)
- EC2 (concentration for 2-fold luciferase induction) (OR7D4): 0.068 µM
- EC2 Fold-improvement vs. wild-type (OR7D4): 25.22

Substance: SEQ ID NO: 294 (RNRDIRKALRKLFKKKCC; source 1..18: note = C-terminal domain sequence)
- EC2 (concentration for 2-fold luciferase induction) (OR7D4): 0.008 µM
- EC2 Fold-improvement vs. wild-type (OR7D4): 224.95

Substance: SEQ ID NO: 295 (RNRELKKALRRLLRRRCC; source 1..18: note = C-terminal domain sequence)
- EC2 (concentration for 2-fold luciferase induction) (OR7D4): 0.033 µM
- EC2 Fold-improvement vs. wild-type (OR7D4): 51.89

Substance: SEQ ID NO: 296 (RNREVKKALRRLFGKKCC; source 1..18: note = C-terminal domain sequence)
- EC2 (concentration for 2-fold luciferase induction) (OR7D4): 0.003 µM
- EC2 Fold-improvement vs. wild-type (OR7D4): 525.05

Substance: SEQ ID NO: 297 (RNRDVRKALKRLLKRKCC; source 1..18: note = C-terminal domain sequence)
- EC2 (concentration for 2-fold luciferase induction) (OR7D4): 0.005 µM
- EC2 Fold-improvement vs. wild-type (OR7D4): 337.39

Substance: SEQ ID NO: 298 (RNRDMRKAIRKLFGRKCC; source 1..18: note = C-terminal domain sequence)
- EC2 (concentration for 2-fold luciferase induction) (OR7D4): 0.011 µM
- EC2 Fold-improvement vs. wild-type (OR7D4): 162.22

Substance: SEQ ID NO: 299 (RNRELKKAIRKLLKRKCC; source 1..18: note = C-terminal domain sequence)
- EC2 (concentration for 2-fold luciferase induction) (OR7D4): 0.093 µM
- EC2 Fold-improvement vs. wild-type (OR7D4): 18.62

Substance: SEQ ID NO: 300 (RNRDIRKAVKKLFGKKCC; source 1..18: note = C-terminal domain sequence)
- EC2 (concentration for 2-fold luciferase induction) (OR7D4): 0.020 µM
- EC2 Fold-improvement vs. wild-type (OR7D4): 87.76

Substance: SEQ ID NO: 301 (RNKEVKKAIRKLFGRRCC; source 1..18: note = C-terminal domain sequence)
- EC2 (concentration for 2-fold luciferase induction) (OR7D4): 0.013 µM
- EC2 Fold-improvement vs. wild-type (OR7D4): 128.57

Substance: SEQ ID NO: 302 (RNREVRKAVRKLFRRKCC; source 1..18: note = C-terminal domain sequence)
- EC2 (concentration for 2-fold luciferase induction) (OR7D4): 0.014 µM
- EC2 Fold-improvement vs. wild-type (OR7D4): 126.99

Substance: SEQ ID NO: 303 (RNRDMKKALKKLFRRRCC; source 1..18: note = C-terminal domain sequence)
- EC2 (concentration for 2-fold luciferase induction) (OR7D4): 0.011 µM
- EC2 Fold-improvement vs. wild-type (OR7D4): 150.37

Substance: SEQ ID NO: 304 (RNRDVRKALKRLLGRRCC; source 1..18: note = C-terminal domain sequence)
- EC2 (concentration for 2-fold luciferase induction) (OR7D4): 0.006 µM
- EC2 Fold-improvement vs. wild-type (OR7D4): 292.59

Substance: SEQ ID NO: 305 (RNKDLKKAVKKLFGRKCC; source 1..18: note = C-terminal domain sequence)
- Fold induction luciferase (OR7D4; 0.1 μM Androstenone): 1.63
- Fold induction luciferase (OR7D4; 1 μM Androstenone): 10.13
- EC2 (concentration for 2-fold luciferase induction) (OR7D4): 0.131 µM
- EC2 Fold-improvement vs. wild-type (OR7D4): 13.15

Substance: SEQ ID NO: 306 (RNKDVRKAVRRLFGRRCC; source 1..18: note = C-terminal domain sequence)
- EC2 (concentration for 2-fold luciferase induction) (OR7D4): 0.017 µM
- EC2 Fold-improvement vs. wild-type (OR7D4): 103.17
